# Laboratory results as given in patent US20040053355A1, “Modular approach to on-line synthesis, drug discovery and biochemical transformations using immobilized enzyme reactors” (priority 2000, published 2004).
# What was measured:
# Type in all cases: biochemical, bovine
# [1] = substrate: COc1cc(C(O)CN)ccc1O; assay: Non-immobilized PNMT activity assay, batch incubation with HPLC-fluorescence analysis; settings: other: non-immobilized PNMT; 37.0 °C
# Description: A mobile phase consisting of potassium phosphate buffer (50 mM) adjusted to pH 2.0 with trifluoroacetic acid was utilized to achieve the desired chromatographic separation of the products from the substrates. The solutes were quantitated using fluorescence detection with excitation at λ=266 nm and emission at λ=380 nm. A flow rate of 0.7 ml/min and ambient temperature were used throughout the study.
# (§1) The activity of phenylethanolamine N-methyltransferase was assayed as follows: [final concentration] […] The reaction was started by addition of the 50 μL substrate [1 mM]. The reaction medium was incubated for 10 min at 37° C. in a shaking bath. The resulting solution was centrifuged at 3000×g and the supernatant were directly injected onto the HPLC under the above mentioned conditions.
# [2] = substrate: COc1cc(C(O)CN)ccc1O; assay: PNMT immobilized on Glut-P stationary phase (PNMT-SP), batch assay; settings: other: PNMT-SP, Table 5; pH 8.3; 37.0 °C
# Description: as §1
# [3] = substrate: COc1cc(C(O)CN)ccc1O; assay: On-line PNMT immobilized enzyme reactor (PNMT-IMER) HPLC system; settings: other: PNMT-IMER, 0.2 ml/min, contact time 20 min, 37° C., n = 2, pH 8.3
# Excerpt: PNMT immobilized on the Glut-P stationary phase was packed into a lcm×10 mm guard (Regis Technologies). The guard was put into a holder and the column was placed onto the chromatographic system. The PNMT-IMER was washed with phosphate buffer [0.1M, pH 8.3]. The eluent was collected in order to determine if any of the enzyme was being washed off the column. The Biorad assay was utilized to measure the amount of non-immobilized enzyme. When the column was not in use it was washed with phosphate buffer [0.1M, pH 8.3] and stored at 4° C.
# The pump on system 2 is stopped. 100 μl of a substrate/cofactor mixture is loaded into the injector (i) and the value is switched to the inject position at the same time the switching valve (SV) is switched such that the substrate/product are eluted from the PNMT-IMER and concentrated onto the analytical columns of System 2 for the specified contact time. […]
# The enzymatic activity on the PNMT-IMER was determined by quantification of the amount of product formed with a given substrate. […]
# Enzymatic activity was examined carrying out injections of a series of substrate/cofactor mixtures. […] The kinetic parameters were determined by drawing Lineweaver-Burke plots utilizing Microsoft Excel. Results are expressed as mean±standard error of the mean (SEM). […]
protein,measurement,setting,value
"phenylethanolamine N-methyltransferase (PNMT), non-immobilized (Bos taurus) (protein) MSGTDRSQAAGAVPDSDPGLAAVSSAYQRFEPRAYLRNNYAPPRGDLSCPDGVGPWKLRCLAQTFATGEVSGRTLIDIGSGPTIYQLLSACAHFEDITMTDFLEVNRQELRLWLREEPGAFDWSVYSQHVCLIEGKGESWQEKECQLRARVKRILPIDVHRPQPLGAGGLAPLPADALVSAFCLEAVSPDLASFQRALDHITTLLRPGGHLLLIGALEESWYLAGEARLAVVPVREEEVREALVRTATRCGICARTPMPAHLQTGVDDVKGIFFTRAQKKVGV",Km,[1],109 µM
PNMT-Glut-P stationary phase (PNMT-SP) (Bos taurus) (protein) MSGTDRSQAAGAVPDSDPGLAAVSSAYQRFEPRAYLRNNYAPPRGDLSCPDGVGPWKLRCLAQTFATGEVSGRTLIDIGSGPTIYQLLSACAHFEDITMTDFLEVNRQELRLWLREEPGAFDWSVYSQHVCLIEGKGESWQEKECQLRARVKRILPIDVHRPQPLGAGGLAPLPADALVSAFCLEAVSPDLASFQRALDHITTLLRPGGHLLLIGALEESWYLAGEARLAVVPVREEEVREALVRTATRCGICARTPMPAHLQTGVDDVKGIFFTRAQKKVGV,Km,[2],152 µM
PNMT-IMER (immobilized phenylethanolamine N-methyltransferase) (Bos taurus) (protein) MSGTDRSQAAGAVPDSDPGLAAVSSAYQRFEPRAYLRNNYAPPRGDLSCPDGVGPWKLRCLAQTFATGEVSGRTLIDIGSGPTIYQLLSACAHFEDITMTDFLEVNRQELRLWLREEPGAFDWSVYSQHVCLIEGKGESWQEKECQLRARVKRILPIDVHRPQPLGAGGLAPLPADALVSAFCLEAVSPDLASFQRALDHITTLLRPGGHLLLIGALEESWYLAGEARLAVVPVREEEVREALVRTATRCGICARTPMPAHLQTGVDDVKGIFFTRAQKKVGV,Km,[3],384 µM
